The values below come from patent publication US6294333, “Fluorescent intensity assay for protein or peptide binding to nucleic acids” (Ingeneus Corp.).

The target of one data set is c-JUN full length (Homo sapiens, UniProt P05412 P05412:1-331). Nature of the data set: fluorescence quenching; no decrease in NaCl or KCl, 21 C. The conditions noted are these: tags: Promega; 340 aa; chain copies: 2 (stated homodimer); label: 5'-fluorescein both strands. As for the experimental part: (§1) The c-JUN :DNA binding reaction mixture (30 μl) contained the following: 9.25 mM HEPES, pH 7.9, 2.23 mM MgCl_2, 0.03 mM EDTA, 50 mM NaCl, 5.0 mM DTT, 3.75% (v/v) glycerol, 0.15 μg/μl bovine serum albumin (BSA), 0–2.0 μg pure c-JUN protein (Promega, Madison, Wis.) or 0–400 ng pure c-JUN peptide, and 0.075 pmole 5'-fluorescein labeled dsDNA oligonucleotide. When full-length c-JUN was used, 3 ng/μl poly(dI)-poly(dC) was included in the reaction mix, and added before the addition of protein and fluorescein-labeled DNA. The examples in FIGS. 1B and 1D contained 50 mM KCl in lieu of 50 mM NaCl. Wild-type and mutant c-JUN DNA-binding domain peptides were generously supplied by Dr. Dirk Bohmann (European Molecular Biology Laboratory, Heidelberg, Germany). The reaction mixtures were incubated at 21° C. for 30 minutes, placed into a quartz cuvette, irradiated with an argon ion laser beam having a wavelength of 488 nm and monitored for fluorescent emission.
These mutant DNA binding studies confirm the specificity of both the c-JUN:wild-type DNA binding conditions and the laser detection method.

In data set [1] the target is T1, c-JUN mutant 14 DNA-binding domain peptide (K277I, C278D) (Homo sapiens, UniProt P05412 SEQ:1-132).
T1 chain: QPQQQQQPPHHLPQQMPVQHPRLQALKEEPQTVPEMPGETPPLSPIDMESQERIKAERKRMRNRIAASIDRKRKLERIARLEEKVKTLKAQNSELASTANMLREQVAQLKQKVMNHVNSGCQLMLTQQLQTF
Nature of the data set: fluorescence quenching; no decrease at 200-400 ng. Conditions: chain copies: 2 (inferred); label: 5'-fluorescein both strands. The protocol:
as §1
The specificity of the laser binding assay was further tested by reacting a mutant c-JUN DNA-binding domain peptide with wild-type or mutant DNA. Specific mutations in the basic domain of c-JUN abolish DNA binding without affecting dimerization, whereas specific mutations in the leucine zipper prevent both dimerization and DNA binding.

Data set [2] deals with c-JUN DNA-binding domain peptide (wild-type) (Homo sapiens, UniProt P05412 SEQ:1-132). Description: fluorescence quenching; minor increase in intensity at 20-200 ng. The conditions noted are these: chain copies: 2 (inferred); label: 5'-fluorescein both strands. As for the experimental part: as §1
For the next data set, the target named is Sp1 full length (UniProt P08047 P08047:2-785). Description: fluorescence quenching; 200 ng Sp1, no decrease. The conditions noted are these: tags: Promega; label: 5'-fluorescein both strands. The protocol:
The Sp1:DNA binding reaction mixture (30 µl) contained the following: 25 mM HEPES, pH 7.8, 100mM KCl, 100 µM ZnSO_4, 1 mM DTT, 20% (v/v) glycerol, 0.05 µg/µl BSA, 0–200 ng pure Sp1 protein (Promega) and 0.1 pmole 5'-fluorescein labeled dsDNA oligonucleotide. The reaction mixes were incubated at 0° C. for […], placed into a quartz cuvette, irradiated with an argon ion laser beam having a wavelength of 488 nm and monitored for fluorescent emission.
When 200 ng Sp1 was reacted with 0.1 pmole mutant JD13F/14F, no decrease in fluorescent intensity was observed (FIG. 4B), indicating non-binding of protein to the mutated DNA sequence. These studies confirmed the specificity of the laser detection assay for a completely different class of DNA-binding proteins.

Chain of Sp1 full length (P08047 2-785, one chain of several): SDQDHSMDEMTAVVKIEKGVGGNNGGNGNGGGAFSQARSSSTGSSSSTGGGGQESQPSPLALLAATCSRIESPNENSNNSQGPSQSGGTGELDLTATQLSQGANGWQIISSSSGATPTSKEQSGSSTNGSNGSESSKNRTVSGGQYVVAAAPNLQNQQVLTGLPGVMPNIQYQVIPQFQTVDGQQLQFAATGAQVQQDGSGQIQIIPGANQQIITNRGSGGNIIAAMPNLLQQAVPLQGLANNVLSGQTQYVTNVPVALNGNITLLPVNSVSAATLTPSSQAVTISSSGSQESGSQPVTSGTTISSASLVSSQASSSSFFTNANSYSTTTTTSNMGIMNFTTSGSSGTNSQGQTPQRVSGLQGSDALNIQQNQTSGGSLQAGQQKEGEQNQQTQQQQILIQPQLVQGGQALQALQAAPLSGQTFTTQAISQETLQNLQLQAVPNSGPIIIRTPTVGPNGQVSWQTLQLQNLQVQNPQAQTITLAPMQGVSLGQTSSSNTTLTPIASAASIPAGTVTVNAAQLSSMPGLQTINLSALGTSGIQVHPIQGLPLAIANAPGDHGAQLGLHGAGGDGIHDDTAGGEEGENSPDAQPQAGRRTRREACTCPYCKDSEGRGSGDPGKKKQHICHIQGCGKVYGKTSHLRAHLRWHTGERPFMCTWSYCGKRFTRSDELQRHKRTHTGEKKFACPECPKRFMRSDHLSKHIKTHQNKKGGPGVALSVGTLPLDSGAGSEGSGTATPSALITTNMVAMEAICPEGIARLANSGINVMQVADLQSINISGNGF

B1: JD3F/4F (dsDNA)
DNA 1: GTGTCTTACTCATGCTT
DNA 2: AAGCATGAGTAAGACAC
Regarding B1, the binding result (in the data set with c-JUN full length; in data set [1]; in data set [2]) was “no binding” throughout.

B2: JD1F/2F (dsDNA)
DNA 1: GTGTCTGACTCATGCTT
DNA 2: AAGCATGAGTCAGACAC
As for B2, the binding result in data set [1] is on record as “no binding”.

B3: JD13F/14F (dsDNA)
DNA 1: CCGGCCTAAATAGGGCTTTT
DNA 2: AAAAGCCCTATTTAGGCCGG
With B3, in the data set with Sp1 full length, the binding result is reported as “no binding”.
